According to patent US20140234868A1, “USE FOR GLYCOLIPOPROTEIN GINTONIN, ISOLATED AND IDENTIFIED FROM GINSENG, AS A NATURAL MEDICAL-PLANT DERIVED LIGAND” (KONKUK UNIVERSITY INDUSTRIAL COOPERATION CORP., priority 2011, published 2014):

Tests used:
[1] = biological target: T1, mutant R3.28A LPA3 receptor (Homo sapiens, UniProt Q9UBY5, R105A); assay: Intracellular Ca2+ in B103 cells with mutant R3.28A LPA3 receptor; assay type: cell-based; conditions: R3.28A LPA3 receptor-transfected B103 cells
T1 construct: expressed in transfected cells; host or cells: B103 rat neuroblastoma cells
T1 sequence (Q9UBY5 1-353 R105A): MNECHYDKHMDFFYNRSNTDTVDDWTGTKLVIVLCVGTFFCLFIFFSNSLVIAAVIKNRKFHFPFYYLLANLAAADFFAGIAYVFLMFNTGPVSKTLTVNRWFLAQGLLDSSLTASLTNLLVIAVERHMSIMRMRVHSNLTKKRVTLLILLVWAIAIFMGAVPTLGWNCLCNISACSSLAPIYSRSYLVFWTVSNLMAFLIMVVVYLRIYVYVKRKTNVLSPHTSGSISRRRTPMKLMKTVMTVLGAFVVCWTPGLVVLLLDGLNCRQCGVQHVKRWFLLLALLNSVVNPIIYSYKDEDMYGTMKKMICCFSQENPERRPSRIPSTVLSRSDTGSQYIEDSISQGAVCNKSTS
Source text: That is, LPA receptors have specific amino acid residues, known as binding sites, which are responsible for interaction with LPA, and the binding of LPA to the specific amino acids starts to exert the function. This Example was configured to examine a change in the gintonin-induced intracellular calcium increase through LPA receptor activation in LPA3 receptor-expressing cells when specific amino acids of the LPA binding site in LPA receptors were mutated.
To this end, a mutant LPA receptor in which Arg3.28, known as a common LPA binding site of LPA1-LPA3 receptors, was mutated as Arg3.28Ala (that is, Arg is substituted by Ala; R3.28A) or Trp4.64, known as an LPA-binding site of LPA3 receptor was mutated as Trp4.64Ala (that is, Tip is substituted by Ala; W4.64A) (Valentine et al., J. Biol. Chem. 283, 12175-12187, 2008) was transfected to B103 cells which were then tested for the action of gintonin, in comparison with cells transfected with the wild-type. […] From the result, it is henceforth understood that the gintonin-triggered LPA receptor activation is achieved by interaction with the LPA binding sites of LPA receptors and that gintonin occupies the LPA binding sites to activate LPA receptors.

LPA5 receptor = LPA5 receptor (Homo sapiens, UniProt Q9H1C0); assay: Intracellular free Ca2+ (Fura-2AM) in LPA5-expressing B103 cells; assay type: cell-based; parameters: host or cells: B103 rat neuroblastoma cells
Chain of LPA5 receptor (Q9H1C0 whole entry): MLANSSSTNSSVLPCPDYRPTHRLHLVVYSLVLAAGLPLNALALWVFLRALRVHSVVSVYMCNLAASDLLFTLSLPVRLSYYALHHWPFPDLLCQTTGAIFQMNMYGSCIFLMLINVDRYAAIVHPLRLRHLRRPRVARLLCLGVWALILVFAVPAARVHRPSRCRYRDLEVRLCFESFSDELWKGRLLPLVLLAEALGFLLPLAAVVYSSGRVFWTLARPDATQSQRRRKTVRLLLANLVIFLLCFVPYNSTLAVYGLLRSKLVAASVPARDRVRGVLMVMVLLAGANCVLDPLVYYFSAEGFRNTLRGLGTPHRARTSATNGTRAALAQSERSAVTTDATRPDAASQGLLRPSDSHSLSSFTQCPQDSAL
Source text: LPA family receptors are endogenous to cells of most organs. B103 rat neuroblastoma cells, known as LPA receptor-null cells (Valentine et al., Biochim Biophys Acta 1780. 597-605) were transiently transfected with a plasmid (vector) carrying one of genes coding for LPA1(edg-2), LPA2(edg-4), LPA3(edg-7), LPA4, LPA5 and LPA6 receptors or a plasmid carrying none of them (empty vector). Two or three days after transfection, the cells are suspended, and made permeable. Then, the permeable cells are treated with Fura-2AM, a fluorescent dye binding to calcium, and then with gintonin, followed by spectrofluorephotometry to examine whether gintonin induces an increase in intracellular free Ca^2+ level. […]

B1: gintonin: ginseng-derived glycolipoprotein; structural protein of ginseng major latex-like protein (MLP151) and ribonuclease-like storage proteins; crude gintonin used in tests (protein)
chain 1: MGLTGKLICQTGIKSDGDVFHELFGTRPHHVPNITPANIQGCDLHEGEFGKVGSVVIWNYSIDGNAMIAKEEIVAIDEEDKSVTFKVVEGHLFEEFKSIVFSVHVDTKGEDNLVTWSIDYEKLNESVKDPTSYLDFLLSVTRDIEAHHLPK
chain 2: RSDYPWAMFALRLQWPAGFCEVNNACDTKSLLNTFTIHGLYPYNAKGTPALYCDGTAFDVNSVSDFLAEMHLAWPSHETNTEDIQFWEHEWKKHGRCSEALLKQTDYFRTALAFRKAFDIVGLLNQEGIYPNNDLYRPKMIKEAIKKHLNAVPEIDFTKNENSEYVLTDINVCVNQQATRFVDCPTDDATDDYRLKFVRLPSKMKFADPRTNSII
- gintonin-induced intracellular calcium increase vs wild-type [1]: greatly reduced
- EC50 (LPA5 receptor; LPA5 receptor, B103 cells, read-out: EC50, LPA receptor-mediated intracellular calcium increase): 0.046 ± 0.003 nM
- increase in intracellular calcium level (LPA5 receptor; gintonin 1 μg/ml, LPA5-expressing B103 cells): 297.5 ± 21.8 µM
